Key:
[1] = target: TerL^P74-26, large terminase of bacteriophage P74-26 (bacteriophage P74-26)
[2] = target: TerS^P74-26, small terminase of the thermophilic bacteriophage P74-26 (gp83) (bacteriophage P74-26); test: SEC-MALS

Substance: TerS^P74-26, small terminase of the thermophilic bacteriophage P74-26 (gp83) (natural protein)
- ATPase activity of TerL^P74-26 upon mixing with gp83, no DNA present [1]: 4.4 fold
- stoichiometry N [2]: 9
